{"source": "paper PMC5992322", "about": "(Cell, 2017)", "binders": {"B1": {"name": "Nup192(2-960) (domain or fragment, S. cerevisiae, UniProt P47054 2-960, looked up)", "chain": "KWSAIPFQTLYRSIESGEFDFDLFKEVLPDLQNLNLNTDKLKNNASRSQLEKGEIELSDGSTFKVNQEFIFEAISLSDELNLDEIVACELILSGDTTANNGKVQYFLRRQYILQIVSFIVNCFHEDTELYQELIKNGALVSNILSAFKFIHTQLSEIKQQINKAQILENYNALFQQNIKFRRDFLLREYDILSQILYGLVDKGAIMKNKDFILSLLHHVSELDSNDFFIIYYTPAFFHLFASLRVLPDADVKLLHSQFMKDLKDDSIYTKPVKVALIFIFFAYFIGWCKEDPKRRADTMDFKTDVDEPMTSAVELGAIEQILIFAADTSIVEQDKSMELFYDIRSLLERHIPRLIPKQLLDDEKIFSQTTNSTYNPASATDNMSGRGLWNPSYPGMMSTTGTARLNSMPNNVNEYSYTTIVLSDQTQEFFLSSFDDVLQTIITDCAFLLTKIKDAEEDSLLSGEDLTLDDISLKADLERFFLSIYFFYASRPEYSCTFWSDKESNAYGFIEWCSRCNDNLMRSCFYLMVSSLSFGPENALNVYHYFGENSSISWKNIAQCLSDYTKKISNFNSSLHKRQQFSESTHNDIDSTAVALEEGLNEEAVIFLSSLLTLVGSVTYQVDEDVKSSLSKVFSDVLFEFTKINTPLVGAAFKVISNLVPKLESSRTKFWSFLDSLIFKDSSLNYSSESYRNAFTNVLTKYSDVLGFLQLFHNLISIHSRENNSEYMVFGKLAFPTRLGQGYRKVGIWPYFDYIFNDILAHVDQIVDIRNKRAVQLPILKIIYTGLCSFDYSVILNSIPAAANLDALVDCENFFNYVQECPAIPIFNYIFTEKIYKSIFNVVDVGVDQLSIELEGGKNQAELLQLAVKIINKVLDYQETYVEELFPIVKKHGKTDYFLPKNYSLHGLRSFYDAIFFNIPLVAHLGLYVGVDDQILATNSLRILAKLSERSNGSVASLS"}}, "key": {"His6-Avitag-MBP-Nup116": {"molecular_target": "His6-Avitag-MBP-Nup116 (S. cerevisiae, UniProt Q02630 1-1113, biotin on the Avitag)", "test": "BLI"}, "Nup192(2-960)": {"molecular_target": "B1", "test": "BLI"}, "[1]": {"molecular_target": "Nup84-Nup133(521-1157) complex (S. cerevisiae, UniProt P52891 1-726; P36161 521-1157)", "sequence (P52891 whole entry, chain 1 of 2)": "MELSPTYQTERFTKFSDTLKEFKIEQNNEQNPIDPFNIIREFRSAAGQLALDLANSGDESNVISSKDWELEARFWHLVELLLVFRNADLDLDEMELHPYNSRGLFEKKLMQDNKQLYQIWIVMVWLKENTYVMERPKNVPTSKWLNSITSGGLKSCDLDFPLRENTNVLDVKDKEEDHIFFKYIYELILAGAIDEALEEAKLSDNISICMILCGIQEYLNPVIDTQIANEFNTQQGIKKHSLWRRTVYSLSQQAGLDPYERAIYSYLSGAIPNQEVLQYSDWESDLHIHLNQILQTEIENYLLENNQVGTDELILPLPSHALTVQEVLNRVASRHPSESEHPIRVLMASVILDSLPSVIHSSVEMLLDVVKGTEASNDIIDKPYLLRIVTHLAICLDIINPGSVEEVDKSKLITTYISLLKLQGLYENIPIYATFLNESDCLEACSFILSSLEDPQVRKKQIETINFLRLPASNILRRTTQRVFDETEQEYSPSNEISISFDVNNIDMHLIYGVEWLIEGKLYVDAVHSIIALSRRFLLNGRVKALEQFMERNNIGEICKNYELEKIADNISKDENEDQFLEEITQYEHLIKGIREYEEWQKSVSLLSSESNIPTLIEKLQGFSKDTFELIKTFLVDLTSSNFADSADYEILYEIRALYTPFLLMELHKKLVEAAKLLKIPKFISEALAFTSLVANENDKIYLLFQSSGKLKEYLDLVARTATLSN", "sequence (P36161 521-1157, chain 2 of 2)": "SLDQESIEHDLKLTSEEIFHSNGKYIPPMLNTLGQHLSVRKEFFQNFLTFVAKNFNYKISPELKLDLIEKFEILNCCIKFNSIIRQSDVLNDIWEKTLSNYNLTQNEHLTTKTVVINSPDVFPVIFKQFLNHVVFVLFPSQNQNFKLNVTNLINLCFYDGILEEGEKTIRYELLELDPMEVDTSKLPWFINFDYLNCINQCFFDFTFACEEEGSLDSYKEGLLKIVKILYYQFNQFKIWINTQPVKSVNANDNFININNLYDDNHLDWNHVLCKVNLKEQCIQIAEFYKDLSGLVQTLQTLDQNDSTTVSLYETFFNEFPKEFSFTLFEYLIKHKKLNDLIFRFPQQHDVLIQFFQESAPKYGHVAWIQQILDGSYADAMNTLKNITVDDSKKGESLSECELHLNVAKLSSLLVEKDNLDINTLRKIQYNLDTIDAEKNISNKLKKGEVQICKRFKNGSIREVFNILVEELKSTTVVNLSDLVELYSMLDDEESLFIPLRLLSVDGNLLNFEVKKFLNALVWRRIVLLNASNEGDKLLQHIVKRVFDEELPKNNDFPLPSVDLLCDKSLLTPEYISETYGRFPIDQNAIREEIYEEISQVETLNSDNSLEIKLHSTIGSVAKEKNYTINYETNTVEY", "test": "pull-down"}}, "data": [{"binder": "Nup170(980-1502) (domain or fragment, S. cerevisiae, UniProt P38181 980-1502, looked up) SIEYTATALQERCGSFCSASDILGFRAIEHLRRAKEIGLRNYDSLNYHLKNATALLEQIVDDLSIEKLKEAVSMMLSVNYYPKSIEFLLNIANSMDKGKLACQYVANGFLENDDRKQYYDKRILVYDLVFDTLIKVDELAEKKQSSKTQNQISISNDDEVKLRQKSYEAALKYNDRLFHYHMYDWLVSQNREEKLLDIETPFILPYLMEKAGSSLKISNILWVYYSRRSKFFESAEILYRLATSNFDITLFERIEFLSRANGFCNSVSPLSQKQRIVQLASRIQDACEVAGIQGDILSLVYTDARIDSAIKDELIKTLDGKILSTSELFNDFAVPLSYHEIALFIFKIADFRDHEVIMAKWDELFQSLRMEFNNTGKKEDSMNFINLLSNVLIKIGKNVQDSEFIFPIFELFPIVCNFFYETLPKEHIVSGSIVSIFITAGVSFNKMYYILKELIETSDSDNSVFNKEMTWLIHEWYKSDRKFRDIISYNDIIHLKEYKIDNDPIEKYVKNSGNNLGICFYKE", "values": [{"measurement": "binding result", "setting": "His6-Avitag-MBP-Nup116", "result": "binds"}]}, {"binder": "His6-Avitag-MBP-Nup116(718-1113) (domain or fragment, S. cerevisiae, UniProt Q02630 718-1113, looked up, biotin on the Avitag) SQSMAQSQNALQQQQQQQRLQIQNNNPYGTNELFSKATVTNTVSYPIQPSATKIKADERKKASLTNAYKMIPKTLFTAKLKTNNSVMDKAQIKVDPKLSISIDKKNNQIAISNQQEENLDESILKASELLFNPDKRSFKNLINNRKMLIASEEKNNGSQNNDMNFKSKSEEQETILGKPKMDEKETANGGERMVLSSKNDGEDSATKHHSRNMDEENKENVADLQKQEYSEDDKKAVFADVAEKDASFINENYYISPSLDTLSSYSLLQLRKVPHLVVGHKSYGKIEFLEPVDLAGIPLTSLGGVIITFEPKTCIIYANLPNRPKRGEGINVRARITCFNCYPVDKSTRKPIKDPNHQLVKRHIERLKKNPNSKFESYDADSGTYVFIVNHAAEQT", "values": [{"measurement": "binding result", "setting": "Nup192(2-960)", "result": "binds"}]}, {"binder": "B1", "values": [{"measurement": "KD of the dominant of the two binding modes", "setting": "His6-Avitag-MBP-Nup116", "result": 500, "unit": "nM"}, {"measurement": "fold lower KD than with the Nup116 variant lacking the GLFG-repeats", "setting": "His6-Avitag-MBP-Nup116", "result": "~15", "unit": "fold"}]}, {"binder": "GST-Nup100(1-307) (domain or fragment, S. cerevisiae, UniProt Q02629 1-307, looked up) MFGNNRPMFGGSNLSFGSNTSSFGGQQSQQPNSLFGNSNNNNNSTSNNAQSGFGGFTSAAGSNSNSLFGNNNTQNNGAFGQSMGATQNSPFGSLNSSNASNGNTFGGSSSMGSFGGNTNNAFNNNSNSTNSPFGFNKPNTGGTLFGSQNNNSAGTSSLFGGQSTSTTGTFGNTGSSFGTGLNGNGSNIFGAGNNSQSNTTGSLFGNQQSSAFGTNNQQGSLFGQQSQNTNNAFGNQNQLGGSSFGSKPVGSGSLFGQSNNTLGNTTNNRNGLFGQMNSSNQGSSNSGLFGQNSMNSSTQGVFGQNNN", "values": [{"measurement": "binding result", "setting": "[1]", "result": "binds"}]}, {"binder": "GST-Nup100(1-610) (domain or fragment, S. cerevisiae, UniProt Q02629 1-610, looked up) MFGNNRPMFGGSNLSFGSNTSSFGGQQSQQPNSLFGNSNNNNNSTSNNAQSGFGGFTSAAGSNSNSLFGNNNTQNNGAFGQSMGATQNSPFGSLNSSNASNGNTFGGSSSMGSFGGNTNNAFNNNSNSTNSPFGFNKPNTGGTLFGSQNNNSAGTSSLFGGQSTSTTGTFGNTGSSFGTGLNGNGSNIFGAGNNSQSNTTGSLFGNQQSSAFGTNNQQGSLFGQQSQNTNNAFGNQNQLGGSSFGSKPVGSGSLFGQSNNTLGNTTNNRNGLFGQMNSSNQGSSNSGLFGQNSMNSSTQGVFGQNNNQMQINGNNNNSLFGKANTFSNSASGGLFGQNNQQQGSGLFGQNSQTSGSSGLFGQNNQKQPNTFTQSNTGIGLFGQNNNQQQQSTGLFGAKPAGTTGSLFGGNSSTQPNSLFGTTNVPTSNTQSQQGNSLFGATKLTNMPFGGNPTANQSGSGNSLFGTKPASTTGSLFGNNTASTTVPSTNGLFGNNANNSTSTTNTGLFGAKPDSQSKPALGGGLFGNSNSNSSTIGQNKPVFGGTTQNTGLFGATGTNSSAVGSTGKLFGQNNNTLNVGTQNVPPVNNTTQNALLGTTAVPSLQQAPVTN", "values": [{"measurement": "binding result", "setting": "[1]", "result": "binds"}]}, {"binder": "ScKap95 (natural protein, S. cerevisiae, UniProt Q06142 1-861, looked up) MSTAEFAQLLENSILSPDQNIRLTSETQLKKLSNDNFLQFAGLSSQVLIDENTKLEGRILAALTLKNELVSKDSVKTQQFAQRWITQVSPEAKNQIKTNALTALVSIEPRIANAAAQLIAAIADIELPHGAWPELMKIMVDNTGAEQPENVKRASLLALGYMCESADPQSQALVSSSNNILIAIVQGAQSTETSKAVRLAALNALADSLIFIKNNMEREGERNYLMQVVCEATQAEDIEVQAAAFGCLCKIMSLYYTFMKPYMEQALYALTIATMKSPNDKVASMTVEFWSTICEEEIDIAYELAQFPQSPLQSYNFALSSIKDVVPNLLNLLTRQNEDPEDDDWNVSMSAGACLQLFAQNCGNHILEPVLEFVEQNITADNWRNREAAVMAFGSIMDGPDKVQRTYYVHQALPSILNLMNDQSLQVKETTAWCIGRIADSVAESIDPQQHLPGVVQACLIGLQDHPKVATNCSWTIINLVEQLAEATPSPIYNFYPALVDGLIGAANRIDNEFNARASAFSALTTMVEYATDTVAETSASISTFVMDKLGQTMSVDENQLTLEDAQSLQELQSNILTVLAAVIRKSPSSVEPVADMLMGLFFRLLEKKDSAFIEDDVFYAISALAASLGKGFEKYLETFSPYLLKALNQVDSPVSITAVGFIADISNSLEEDFRRYSDAMMNVLAQMISNPNARRELKPAVLSVFGDIASNIGADFIPYLNDIMALCVAAQNTKPENGTLEALDYQIKVLEAVLDAYVGIVAGLHDKPEALFPYVGTIFQFIAQVAEDPQLYSEDATSRAAVGLIGDIAAMFPDGSIKQFYGQDWVIDYIKRTRSGQLFSQATKDTARWAREQQKRQLSL", "values": [{"measurement": "binding result", "setting": "His6-Avitag-MBP-Nup116", "result": "binds"}]}, {"binder": "GST-Nup116(348-458) (domain or fragment, S. cerevisiae, UniProt Q02630 348-458, looked up) GALFGAKPASGGLFGQSAGSKAFGMNTNPTGTTGGLFGQTNQQQSGGGLFGQQQNSNAGGLFGQNNQSQNQSGLFGQQNSSNAFGQPQQQGGLFGSKPAGGLFGQQQGAST", "values": [{"measurement": "binding result", "setting": "[1]", "result": "binds"}]}]}
